These results are taken from patent US20240092890A1 (JUNTENDO EDUCATIONAL FOUNDATION, published 2024).

A value given as a limit tells only on which side of the number the result lay.

The target of assay [1] is T1, Ins 5 type mutant CALR protein on UT-7/TPO CALR Ins 5 cells (UniProt P27797 18-417).
T1 sequence (looked up): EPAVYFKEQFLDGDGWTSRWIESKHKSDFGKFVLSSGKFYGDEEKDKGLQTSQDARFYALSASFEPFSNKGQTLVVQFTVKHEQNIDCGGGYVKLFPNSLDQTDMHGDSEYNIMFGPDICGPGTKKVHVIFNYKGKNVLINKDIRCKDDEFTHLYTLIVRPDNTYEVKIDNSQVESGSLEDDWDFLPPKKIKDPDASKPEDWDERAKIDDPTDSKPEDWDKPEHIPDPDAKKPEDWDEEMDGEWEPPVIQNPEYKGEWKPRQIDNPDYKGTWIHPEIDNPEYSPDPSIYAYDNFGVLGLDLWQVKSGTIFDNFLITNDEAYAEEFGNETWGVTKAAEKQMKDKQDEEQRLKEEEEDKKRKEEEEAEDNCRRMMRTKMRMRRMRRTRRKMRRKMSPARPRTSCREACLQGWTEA
The experiment in a line: cell-based or functional assay.

Assay [2] concerns the target T2, protein having an Fc region and a His-tag added to the N-terminus of SEQ ID NO: 1.
T2 construct: also called mutant CALR protein (antigen of the BLItz measurement); not shown: Fc region and His-tag at the N-terminus
T2 chain: RRMMRTKMRMRRM
The experiment in a line: BLItz biolayer interferometry, Fc/His-SEQ ID NO: 1 protein on the biosensor. The method, then:
As another method, measurements were performed using the molecular interaction analysis system BLItz (ForteBio), which applies biolayer interferometry […]. Specifically, a protein having an Fc region and a His-tag added to the N-terminus of SEQ ID NO: 1 was immobilized at a concentration of 0.1 mg/mL using the Anti-Penta-HIS or ProteinA biosensor (ForteBio). Subsequently, the antibodies 1 to 114 made were prepared at a concentration of 500, 100, and 50 nM and reacted to acquire the dissociation constant.
(In general: In BLI a coated tip is dipped into the sample, and binding shifts an interference pattern.)

B1: Antibody 58 (bispecific antibody)
chain 1: not shown
chain 2: DIQMTQSPSFVSASVGDRVTITCLASEDIYSYLAWYQQKPGKAPKLLIFAANRLQDGVPSRFSGGGSGTGFTLTISSLQPEDFATYFCLQGSKFPYTFGQGTKLEINRTVAAPSVFIFPPSDEQLKSGTASVVCLLNNFYPREAKVQWKVDNALQSGNSQESVTEQDSKDSTYSLSSTLTLSKADYEKHKVYACEVTHQGLSSPVTKSFNRGEC
Regarding B1, in assay [1], the “EC50 of cytotoxic activity (pM)” value came out at 1530 pM. Moreover, the Kd (usually the constant that tells how readily two partners part at equilibrium) in assay [2] is less than 1 pM.

B2: Antibody 61 (bispecific antibody)
chain 1: not shown
chain 2: DIQMTQSPSFVSASVGDRVTITCLASEDIYSYLAWYQQKPGKAPKLLIFAANRLQDGVPSRFSGGGSGTGFTLTISSLQPEDFATYFCLQGSKFPYTFGQGTKLEINRTVAAPSVFIFPPSDEQLKSGTASVVCLLNNFYPREAKVQWKVDNALQSGNSQESVTEQDSKDSTYSLSSTLTLSKADYEKHKVYACEVTHQGLSSPVTKSFNRGEC
In the case of B2, the “EC50 of cytotoxic activity (pM)” value in assay [1] was found to be 9760 pM. Further, the Kd in assay [2] is less than 1 pM.

B3: Antibody 65 (bispecific antibody)
chain 1: not shown
chain 2: DIQMTQSPSFVSASVGDRVTITCLASEDIYSYLAWYQQKPGKAPKLLIFAANRLQDGVPSRFSGGGSGTGFTLTISSLQPEDFATYFCLQGSKFPYTFGQGTKLEINRTVAAPSVFIFPPSDEQLKSGTASVVCLLNNFYPREAKVQWKVDNALQSGNSQESVTEQDSKDSTYSLSSTLTLSKADYEKHKVYACEVTHQGLSSPVTKSFNRGEC
With B3, the “EC50 of cytotoxic activity (pM)” value in assay [1] was 397 pM. In assay [2], this molecule registered a Kd of less than 1 pM.

B4: Antibody 64 (bispecific antibody)
chain 1: not shown
chain 2: DIQMTQSPSFVSASVGDRVTITCLASEDIYSYLAWYQQKPGKAPKLLIFAANRLQDGVPSRFSGGGSGTGFTLTISSLQPEDFATYFCLQGSKFPYTFGQGTKLEINRTVAAPSVFIFPPSDEQLKSGTASVVCLLNNFYPREAKVQWKVDNALQSGNSQESVTEQDSKDSTYSLSSTLTLSKADYEKHKVYACEVTHQGLSSPVTKSFNRGEC
Turning to B4, the “EC50 of cytotoxic activity (pM)” value in assay [1] was 829 pM. In assay [2], this molecule came in with a Kd of less than 1 pM.

B5: Antibody 66 (bispecific antibody)
chain 1: not shown
chain 2: DIQMTQSPSFVSASVGDRVTITCLASEDIYSYLAWYQQKPGKAPKLLIFAANRLQDGVPSRFSGGGSGTGFTLTISSLQPEDFATYFCLQGSKFPYTFGQGTKLEINRTVAAPSVFIFPPSDEQLKSGTASVVCLLNNFYPREAKVQWKVDNALQSGNSQESVTEQDSKDSTYSLSSTLTLSKADYEKHKVYACEVTHQGLSSPVTKSFNRGEC
B5: the “EC50 of cytotoxic activity (pM)” value in assay [1] worked out at 115 pM. In addition, the Kd in assay [2] is less than 1 pM.

B6: Antibody 59 (bispecific antibody)
chain 1: not shown
chain 2: DIQMTQSPSFVSASVGDRVTITCLASEDIYSYLAWYQQKPGKAPKLLIFAANRLQDGVPSRFSGGGSGTGFTLTISSLQPEDFATYFCLQGSKFPYTFGQGTKLEINRTVAAPSVFIFPPSDEQLKSGTASVVCLLNNFYPREAKVQWKVDNALQSGNSQESVTEQDSKDSTYSLSSTLTLSKADYEKHKVYACEVTHQGLSSPVTKSFNRGEC
Turning to B6, the “EC50 of cytotoxic activity (pM)” value in assay [1] was 469 pM. Moreover, the dissociation constant (Kd) in assay [2] was less than 1 pM.

B7: Antibody 60 (bispecific antibody)
chain 1: not shown
chain 2: DIQMTQSPSFVSASVGDRVTITCLASEDIYSYLAWYQQKPGKAPKLLIFAANRLQDGVPSRFSGGGSGTGFTLTISSLQPEDFATYFCLQGSKFPYTFGQGTKLEINRTVAAPSVFIFPPSDEQLKSGTASVVCLLNNFYPREAKVQWKVDNALQSGNSQESVTEQDSKDSTYSLSSTLTLSKADYEKHKVYACEVTHQGLSSPVTKSFNRGEC
B7: the “EC50 of cytotoxic activity (pM)” value in assay [1] stood at 77 pM. Also, the Kd in assay [2] was less than 1 pM.

B8: Antibody 63 (bispecific antibody)
chain 1: not shown
chain 2: DIQMTQSPSFVSASVGDRVTITCLASEDIYSYLAWYQQKPGKAPKLLIFAANRLQDGVPSRFSGGGSGTGFTLTISSLQPEDFATYFCLQGSKFPYTFGQGTKLEINRTVAAPSVFIFPPSDEQLKSGTASVVCLLNNFYPREAKVQWKVDNALQSGNSQESVTEQDSKDSTYSLSSTLTLSKADYEKHKVYACEVTHQGLSSPVTKSFNRGEC
As to B8, the “EC50 of cytotoxic activity (pM)” value in assay [1] is 197 pM. In addition, the Kd in assay [2] turned out to be 262 pM.
